Values joined by “and” are separate entries in the source; they are usually repeats but may differ in a detail not shown here. Equal values may be shown once.
B1: sulfamidase modified with R1 oxidation at 22 °C, 120 min, 10 mmol/L sodium meta-periodate (enzyme)
chain: RPRNALLLLADDGGFESGAYNNSAIATPHLDALARRSLLFRNAFTSVSSCSPSRASLLTGLPQHQNGMYGLHQDVHHFNSFDKVRSLPLLLSQAGVRTGIIGKKHVGPETVYPFDFAYTEENGSVLQVGRNITRIKLLVRKFLQTQDDRPFFLYVAFHDPHRCGHSQPQYGTFCEKFGNGESGMGRIPDWTPQAYDPLDVLVPYFVPNTPAARADLAAQYTTVGRMDQGVGLVLQELRDAGVLNDTLVIFTSDNGIPFPSGRTNLYWPGTAEPLLVSSPEHPKRWGQVSEAYVSLLDLTPTILDWFSIPYPSYAIFGSKTIHLTGRSLLPALEAEPLWATVFGSQSHHEVTMSYPMRSVQHRHFRLVHNLNFKMPFPIDQDFYVSPTFQDLLNRTTAGQPTGWYKDLRHYYYRARWELYDRSRDPHETQNLATDPRFAQLLEMLRDQLAKWQWETHDPWVCAPDGVLEEKLSPQCQPLHNEL
modifications: N-glycans oxidised with periodate (22 °C, 120 min, 10 mmol/L), then reduced with borohydride as in new method 1
B2: sulfamidase modified according to new method 1 (enzyme)
chain: B1 chain
modifications: N-glycans oxidised with 20 mM sodium meta-periodate (0 °C, 120 min) and reduced with 50 mM sodium borohydride (0 °C, 120 min); FGly50 about 45% converted to Ser
B3: sulfamidase modified with R1 oxidation at 22 °C, 120 min, 40 mmol/L sodium meta-periodate (enzyme)
chain: B1 chain
modifications: N-glycans oxidised with periodate (22 °C, 120 min, 40 mmol/L), then reduced with borohydride as in new method 1
B4: sulfamidase modified according to new method 4 (enzyme)
chain: B1 chain
modifications: N-glycans oxidised with 20 mM sodium meta-periodate (0 °C, 120 min) and reduced with 10 mM sodium borohydride; FGly50 about 11% converted to Ser
B5: sulfamidase modified with R1 oxidation at 8 °C, 60 min, 20 mmol/L sodium meta-periodate (enzyme)
chain: B1 chain
modifications: N-glycans oxidised with periodate (8 °C, 60 min, 20 mmol/L), then reduced with borohydride as in new method 1
B6: sulfamidase modified with R1 oxidation at 0 °C, 120 min, 40 mmol/L sodium meta-periodate (enzyme)
chain: B1 chain
modifications: N-glycans oxidised with periodate (0 °C, 120 min, 40 mmol/L), then reduced with borohydride as in new method 1
B7: sulfamidase modified according to the known method (WO 2008/109677) (enzyme)
chain: B1 chain
modifications: N-glycans oxidised with 20 mM sodium meta-periodate (6.5 h) and reduced with 100 mM sodium borohydride (overnight); FGly50 about 56% converted to Ser; Met184 and Met443 almost completely oxidised
B8: sulfamidase modified with R1 oxidation at 0 °C, 30 min, 40 mmol/L sodium meta-periodate (enzyme)
chain: B1 chain
modifications: N-glycans oxidised with periodate (0 °C, 30 min, 40 mmol/L), then reduced with borohydride as in new method 1
B9: sulfamidase modified with R1 oxidation at 22 °C, 30 min, 40 mmol/L sodium meta-periodate (enzyme)
chain: B1 chain
modifications: N-glycans oxidised with periodate (22 °C, 30 min, 40 mmol/L), then reduced with borohydride as in new method 1
B10: sulfamidase modified with R1 oxidation at 0 °C, 30 min, 10 mmol/L sodium meta-periodate (enzyme)
chain: B1 chain
modifications: N-glycans oxidised with periodate (0 °C, 30 min, 10 mmol/L), then reduced with borohydride as in new method 1
B11: sulfamidase modified with R1 oxidation at 0 °C, 120 min, 10 mmol/L sodium meta-periodate (enzyme)
chain: B1 chain
modifications: N-glycans oxidised with periodate (0 °C, 120 min, 10 mmol/L), then reduced with borohydride as in new method 1
B12: sulfamidase modified with R1 oxidation at 22 °C, 30 min, 10 mmol/L sodium meta-periodate (enzyme)
chain: B1 chain
modifications: N-glycans oxidised with periodate (22 °C, 30 min, 10 mmol/L), then reduced with borohydride as in new method 1

target: M6P receptors on MEF-1 fibroblasts; assay: cell-based or functional assay

| Binder | Cell uptake % of unmodified sulfamidase uptake (% of unmodified sulfamidase uptake) | specific activity in cell homogenate (endocytosis in MEF-1 cells) (% of unmodified recombinant sulfamidase) |
| --- | --- | --- |
| B1 | 8.5 |  |
| B2 |  | < 10 |
| B3 | 3.5 |  |
| B4 |  | < 10 |
| B5 | 6.1 and 6.5 |  |
| B6 | 3.5 |  |
| B7 |  | < 10 |
| B8 | 3.8 |  |
| B9 | 2.7 |  |
| B10 | 12 |  |
| B11 | 9.5 |  |
| B12 | 7.1 |  |
